Results taken from PMC7069705.

Molecular target: APC (full-length; APC-TMR when labeled) (Mus musculus, UniProt Q61315 1-2845)
Assay: single-molecule TIRF-M co-diffusion on microtubules

APC (full-length; APC-TMR when labeled), sequence (Q61315 whole entry, the tested form may be a part): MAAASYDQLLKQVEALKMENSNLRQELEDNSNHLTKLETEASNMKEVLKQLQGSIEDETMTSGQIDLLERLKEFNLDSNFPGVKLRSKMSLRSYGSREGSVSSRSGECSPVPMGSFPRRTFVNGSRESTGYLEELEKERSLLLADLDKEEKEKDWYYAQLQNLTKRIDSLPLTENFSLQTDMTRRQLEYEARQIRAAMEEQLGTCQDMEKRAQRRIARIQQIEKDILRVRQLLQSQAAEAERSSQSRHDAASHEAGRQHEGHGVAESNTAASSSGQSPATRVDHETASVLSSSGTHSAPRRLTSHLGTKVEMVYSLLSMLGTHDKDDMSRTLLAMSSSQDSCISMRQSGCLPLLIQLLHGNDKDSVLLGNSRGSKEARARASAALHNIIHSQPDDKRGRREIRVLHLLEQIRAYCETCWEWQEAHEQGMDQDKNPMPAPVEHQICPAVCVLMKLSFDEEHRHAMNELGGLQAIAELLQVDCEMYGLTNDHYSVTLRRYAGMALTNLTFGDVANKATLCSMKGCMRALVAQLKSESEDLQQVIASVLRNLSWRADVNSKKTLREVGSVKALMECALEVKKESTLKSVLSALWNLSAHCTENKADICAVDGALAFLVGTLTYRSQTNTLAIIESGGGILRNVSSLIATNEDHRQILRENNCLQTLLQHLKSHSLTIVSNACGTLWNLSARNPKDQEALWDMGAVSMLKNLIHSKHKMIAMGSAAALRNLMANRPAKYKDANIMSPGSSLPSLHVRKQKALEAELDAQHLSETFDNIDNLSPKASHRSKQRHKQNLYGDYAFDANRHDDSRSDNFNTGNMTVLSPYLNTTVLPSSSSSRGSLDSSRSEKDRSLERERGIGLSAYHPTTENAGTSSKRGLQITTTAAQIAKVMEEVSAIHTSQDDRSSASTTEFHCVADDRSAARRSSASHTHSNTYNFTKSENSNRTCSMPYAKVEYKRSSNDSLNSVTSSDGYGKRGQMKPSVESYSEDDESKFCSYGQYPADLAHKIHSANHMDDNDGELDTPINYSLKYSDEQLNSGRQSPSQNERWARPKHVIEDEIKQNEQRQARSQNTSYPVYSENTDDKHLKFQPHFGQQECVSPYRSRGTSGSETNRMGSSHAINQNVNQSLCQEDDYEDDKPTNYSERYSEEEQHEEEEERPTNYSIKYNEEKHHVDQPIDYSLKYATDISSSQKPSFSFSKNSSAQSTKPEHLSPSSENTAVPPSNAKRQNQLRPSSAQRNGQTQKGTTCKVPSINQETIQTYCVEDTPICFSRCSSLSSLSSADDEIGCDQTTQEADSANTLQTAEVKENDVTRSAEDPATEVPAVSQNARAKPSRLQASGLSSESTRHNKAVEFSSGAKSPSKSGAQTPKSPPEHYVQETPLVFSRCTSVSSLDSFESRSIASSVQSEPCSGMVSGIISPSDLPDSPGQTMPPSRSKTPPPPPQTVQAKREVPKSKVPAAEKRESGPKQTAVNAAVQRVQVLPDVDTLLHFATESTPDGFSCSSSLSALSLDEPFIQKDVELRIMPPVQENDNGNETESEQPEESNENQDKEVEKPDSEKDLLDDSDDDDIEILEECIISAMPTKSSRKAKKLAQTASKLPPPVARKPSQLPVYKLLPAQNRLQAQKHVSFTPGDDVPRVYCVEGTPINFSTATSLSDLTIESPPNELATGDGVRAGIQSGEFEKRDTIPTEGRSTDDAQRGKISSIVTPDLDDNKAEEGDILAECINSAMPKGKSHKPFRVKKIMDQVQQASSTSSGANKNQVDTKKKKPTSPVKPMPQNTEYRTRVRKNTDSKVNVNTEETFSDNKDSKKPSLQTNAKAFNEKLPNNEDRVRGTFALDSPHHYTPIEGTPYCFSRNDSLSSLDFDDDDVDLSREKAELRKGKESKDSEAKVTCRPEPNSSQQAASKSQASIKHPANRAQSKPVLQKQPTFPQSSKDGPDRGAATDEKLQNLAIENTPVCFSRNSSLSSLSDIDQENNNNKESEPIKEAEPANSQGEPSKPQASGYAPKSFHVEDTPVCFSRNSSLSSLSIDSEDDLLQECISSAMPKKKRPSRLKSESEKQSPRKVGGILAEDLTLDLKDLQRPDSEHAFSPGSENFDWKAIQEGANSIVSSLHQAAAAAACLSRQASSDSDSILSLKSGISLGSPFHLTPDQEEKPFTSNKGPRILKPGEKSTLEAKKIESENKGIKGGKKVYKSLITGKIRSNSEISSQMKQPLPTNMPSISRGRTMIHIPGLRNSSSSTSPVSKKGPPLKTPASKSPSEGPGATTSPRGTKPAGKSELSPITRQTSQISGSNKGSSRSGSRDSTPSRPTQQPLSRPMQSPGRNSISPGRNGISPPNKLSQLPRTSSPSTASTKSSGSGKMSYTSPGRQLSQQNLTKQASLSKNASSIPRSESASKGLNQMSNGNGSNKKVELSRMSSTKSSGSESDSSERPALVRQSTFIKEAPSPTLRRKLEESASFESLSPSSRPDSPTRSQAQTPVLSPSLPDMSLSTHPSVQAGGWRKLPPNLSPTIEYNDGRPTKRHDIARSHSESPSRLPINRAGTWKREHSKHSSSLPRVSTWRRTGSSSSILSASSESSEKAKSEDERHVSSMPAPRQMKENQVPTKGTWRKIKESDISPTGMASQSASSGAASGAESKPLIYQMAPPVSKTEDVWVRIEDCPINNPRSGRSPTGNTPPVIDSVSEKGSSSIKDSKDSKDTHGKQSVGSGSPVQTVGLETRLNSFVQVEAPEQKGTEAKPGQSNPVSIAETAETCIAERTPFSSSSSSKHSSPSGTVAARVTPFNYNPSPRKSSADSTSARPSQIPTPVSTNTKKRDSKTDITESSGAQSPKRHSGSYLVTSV

B1: β2Btubwt (ssRNA)
RNA: GUUCCCCAGGCCAAGCAGGUUAGGGAAAGCUGAGAUGAAAGGAGGGGGUGGGGGGGCUUAAUCUGUGAAAAUACCUUGGCAGUUGAA
  binding result: binds
